Data reported in a protein production outcome set (Wang et al. 2014).

Test: label from the status in PepcDB records
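Note: failed if final PepcDB status was selected cloned or expressed and not failed if soluble or beyond.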

Sequence	protein production
MKMVDELKGNLNSFLILLGIFSFLQFSFKQSFMFPSILPLNIPDSNLLLVIGNISFYFFFVFLLIVSMILSLTYKSLIPLTIILTISPFITLIPNYENSFLLYSLEIAILILGLASTIEGLIKSSLLSILLIPTLVLVNLGIYASILLNIFHNALFISYLTIYLISIAGYLAYVISWGKIKSLRNYIAISVGLLSMIPFIFFENIISHNRYLEILMNMILPSTLGITLYNPYHITLLVMALGLSTMGIVTSLIKGNVSSGVGYFLIITTVFLGIDGFSLLIYMLTPIIGFLVITSSEIESKRRLIDIISPTRNG	failed
MKNAFLYFLLYYRMLTTYYEWFVIVCFPQIRKICCYNEDTKTNAMEAIMKKLIGIATAAVFGLGIFTSSANAETVVTTDVLNVRENPTTESKVVGKLLNGNKIDVQNTENGWSKITLDGKDAFVSAEFTKSIYYVTANVLNVRAEANTNSEILGTLKKDDMIETTNQVQNEWLQFEYNGKTAYVHVPFLTGTAPVIEKQEQPAPAKAQAPAQAPAAQAKQAAKPAVKAAETNTPSGGRELTVVATAYTAHPSENGGTYGGRVLTAMGHDLTANPNMKMIAVDPKVIPLGSKVWVEGYGEAIAGDTGGAIKGNRIDILLGSDSAAQKWGRKTVKVKILK	failed
MKNEGKKGTEQAKKPEKTKITENEINGNESGKQSFEVDRRSVYRCVQCGTCRSVCPVFDVVGWESANTRGRMLIIKSLLEGRPPSEDMLPSLASCTTCGICAVKCPAGVKPPKVVEAARAQLVKCGITTEAQKNLKSTIMTYGNSFGETRDRKHWLSEVERSQLPEKSDYVYFVGCFDSYRYPEFAKKTFGILQQFGVTLLPDEQCCASPLLRTGFKEDAEKVMKHNLEQIRKVGAHTIITSCAGCYTTLKNNYPEELKVISLPEFLVEHLEELNLKKLDLTVTYHDPCHLGRHNKVYDAPRKVIQAICTLKEMKYIKENARCCGGGGGVRTGYPDISLELARNRLKDVPEGVDYIVTSCPLCVRNLRDAGGDIEVIDIVELVAMAME	failed
MKNEVFFGEGMKVVAAAYPDLYDIIVKLNDTVFTGKTLDYKTQKLIAIGIVASRCDEVAIEKQMKSAMKELGITKEEIADVLRVVLLTSGMPAFTKAMKILEKL	not failed
MKNFLMKKIIYSGVLSIHFILAFVVNSVGAAQLKKSSTLSMNVLFITIDDLNNDLGAYGHHLVKSPNIDALAKKGIRFDKAYSQSPMCTPSRSSFMTGLYPDQTGIIAHGSHTQMTAHFREHIPKVTTLPQLFKNNGYFSGRVGKIYHQGVPNQIGTSGADDAASWHETVNPIGLDKDVEDKIIAFNEKALVRQSFGGVLSFLAIGDDDKAHTDGKVATETINMIKDHHPDKTGKPFFIGAGFYRPHTPFVAPKKYFDLYPLEKIKPYIAPKNDRKDIPDIALQDREGQVGLTLNQRKQIIQGYYAAVSYVDAQVGRVLDALKQQDLSDNTIVVFLSDHGYELGQHGLWQKGSLFEGSARAPLIIYAPNVKDNGRVVTSPVELVDIYPTLAKLTGLVAPEYLAGKDLTPALNDVDFQVRKGAYSAILNRNKGDNNQFAFTKIRGHSIRTNRYRYTEWGEGYFGAELYDHKNDPQELKNLADKVSLESVRIKMKWLLNDAMDDAQKRIKSIE	failed
MKNIEKLEQSLTYEFKDKNLLIHALTHKSFKKSYNNERLEFLGDAVLDLVVGEYLFHKFAKDAEGDLSKLRAALVNEKSFAKIANSLNLGDFILMSVAEENNGGKEKPSILSDALEAIIGAIHLEAGFEFAKTIALRLIEKNFPQIDAKILIKDYKTKLQEITQGKIGQTPQYETVRAFGPDHLKQFEIALMLDGKELARAIAGSKKEAQQMAAKIALEKLGAL	not failed
MKNILKVFNTTILALIIIIATFSNSANAADSGTLNYEVYKYNTNDTSIANDYFNKPAKYIKKNGKLYVQITVNHSHWITGMSIEGHKENIISKNTAKDERTSEFEVSKLNGKIDGKIDVYIDEKVNGKPFKYDHHYNITYKFNGPTDVAGANAP	not failed
MKNKKYLQFGGIAAVILIVLFLVSLFSSDTRNFQEVDTSVAMAQLDAGNVAEAQIDDREQRVRLTLREPITVDEREGVEEILAQYPARTAPAIFEKVEASNTDSYTTNVTQESFLMSMLSFILPMVIIFGLLMFFLTRMQGGGMFGIGGSKAKQLTKDMPTNTFADVAGAEEAVDELHEIKDFLEDPTRYEALGAKIPRGVLLYGPPGTGKTLLARAVAGEAGVPFYSISGSDFVEMFVGVGASRVRDLFKQAKENSPCIIFVDEIDAVGRARGSGMGGGHDEREQTLNQLLVEMDGFGDRQGVILMAATNRPDVLDPALLRPGRFDRQIPVTNPDLRGREQILEVHAKGKPFAPDADIKALAKRTAGMSGADLANVLNEAALLTARVGGNVITADALEEATDRVVGGPRRSGKVISEKEKKVTAYHEGGHTLSAWALEDIERVYKVTILARGRTGGHAMTAQEDDKGMYNRNELFARLVFAMGGRSAEELVFGEPTTGASADIEMATKIARSMVTEYGMSPAVGMVKYGQEQGDPFSGRGGGGNLDHSQEVAATIDTEVQFLLDKAHEVSYSILAEYRDHLDRLAEKLLEKETLRRPDLEALFDDIVPRKVAEVFPDESTRFPRQENREPVKTPVELALERGEEPPKKFSILEASRATRERRRKELEAQGKLPVQPASSAGVAPAAGAAAGSYGTPPPADWSVPGSAGKHRSRAEEQPAEQGFPAQTPAQAPEQSPDSSGGRPNPYATPTASGEHPGMKAYGFGDSELMDQSTGAEHTPGNVSQESPTEMIGFRLPDHERSDYPEKAQKESVLDASETTEMPVVPDQPIDGDSGKSAEGTQENPENEGDNRG	failed
MKNLVVVDHPLIKHKLTIMRDKNTGPKEFRELLREITLLLAYEATRHLKCEEVEVETPITKTIGYRINDKDIVVVPILRAGLVMADGILELLPNASVGHIGIYRDPETLQAVEYYAKLPPLNDDKEVFLLDPMLATGVSSIKAIEILKENGAKKITLVALIAAPEGVEAVEKKYEDVKIYVAALDERLNDHGYIIPGLGDAGDRLFRTK	not failed
MKNPQSKADDILQCARTLIIRGGYNSFSYADISQVVGIRNASIHHHFPSKSDLVCKLVSQYRQEAEAGIAELEKNISDPLEQLRAYIGYWEGCIADATHPFCVCALLASEIPVLPETVVLEVRAHFRSLSDWLTAVLERGIAQGRLVLTGTARANAEIFMATVHGAMLSARAHGDAATFGAITRPMLERITA	not failed
MKNRIWSAAMAAGLLVAAATSAQAEPVMQGRDAYGDWQSDRPGTVRLIRPQDLVKPGATRSVASFARVVPRPSDASPQVPPGFKIELFAEGLRAPRIVRVAPNGDVFVAETRAGTIRVLRAGEGGKVAANEVFASGLRQPFGVAFFPNGDNPQWVYVANTDSVVRFPYQAGDLKARSKAEKIVASLPHDGGHSTRDIVFTPDNKRMLVSVGSLSNVAEGMGTPPGGMDAWSKTQPLGAAWASETERATVLAFTPDGKERKIYATGIRNCVGLAIQSQTGLPWCSTNERDGLGDDLVPDYVTSVKEGAFYGWPWFYIGGNEDPRHAGARPDLKDRVTIPDVLIQPHSASLGMTFYEGTQFPSDYQGDAFAAEHGSWNRSKRTGYKVIRIRMKDGKPTGEYEDFVTGFVLSDTEVWGRPVGVAVAKDGALLISEDGNGTIWRVSHP	failed
MKPILALLSLLALPVMAAEPTLYGRYENIKVLEIGQTFKAKMDTGALTASLSAKDIELFQRDGDDWVRFRLATKGADDKVYEHKVSRISKIKGRAEGDDEDDEGINPAKRPVVDLELCLGNKKRTVEVNLVDRSHFNFPLLIGAKALREFGAAINPARRYTADEPDC	not failed
MKPLEQAINDNKKKKRFNFRMPGAFMILFILTVVAVIATWIIPAGAYSKLSYEPSSQELKIVNPHHQVKKVPGTQKELDRLGVKIKIEQFKSGAINKPVSIPNTYERLKQHPAGLDQITSSMVKGTIEAVDIMVFILVLGGLIGVVQASGSFESGLLALTQKTKGHEFMLIAFVSILMIIGGTLCGIEEEAVAFYPVLVPIFIALGYDSIVSVGAIFLASSVGSTFSTINPFSVVIASNAAGTTFTDGLYWRIGACIIGAIFVISYLFWYCKKIKKDPKSSYSYEDKAAFEKQWSVLHDDGSSEFTLRKKIILTLFVLPFPIMVWGVMTQGWWFPVMASVFLIFTIIIMFIAGTGQYGLGEKGTVDAFVNGASSLVGVSLIIGLARGINLVLNKGMISDTILHFSSSIVQHMSGPLFIIVLLFIFFCLGFIVPSSSGLAVLSMPIFAPLADTVGIPRFVIVTTYQFGQYAMLFLAPTGLVMATLQMLNMRYSHWLRFVWPVVAFVLIFGGGLLITQVLIYS	failed
MKPPSAIMETALYADDLDAAEAFYRDVFGLEMVLKLPGQLVFFKCGRQMLLLFDPQESSRADANNPIPRHGAVGQGHFCFYADDKAEVDEWKTRFEALEIPVEHYHRWPNGSYSVYIRDPAGNSVEVGEGKLWGFE	not failed
